Measured values from PMC9482650, “Quantitative fragmentomics allow affinity mapping of interactomes” (Nature Communications, 2022).

T1: ARHGEF11, O15085
T1 sequence (O15085 42-136, limits assumed, looked up): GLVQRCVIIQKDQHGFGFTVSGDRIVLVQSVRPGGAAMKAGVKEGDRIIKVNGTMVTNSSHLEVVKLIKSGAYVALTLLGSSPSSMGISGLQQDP

T2: DFNB31_1, Q9P202
T2 sequence (Q9P202 135-233, limits assumed, looked up): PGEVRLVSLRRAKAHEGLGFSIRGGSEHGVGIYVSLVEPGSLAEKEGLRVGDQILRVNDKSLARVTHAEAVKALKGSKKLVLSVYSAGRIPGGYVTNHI

T3: GRIP1_7, Q9Y3R0
T3 sequence (Q9Y3R0 999-1096, limits assumed, looked up): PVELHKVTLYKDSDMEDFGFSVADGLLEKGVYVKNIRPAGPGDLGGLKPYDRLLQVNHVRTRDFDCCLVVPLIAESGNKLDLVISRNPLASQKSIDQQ

T4: HTRA4, P83105
T4 sequence (P83105 378-476, limits assumed, looked up): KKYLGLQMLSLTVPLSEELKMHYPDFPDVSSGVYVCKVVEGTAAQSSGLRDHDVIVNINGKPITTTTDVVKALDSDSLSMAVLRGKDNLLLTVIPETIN

T5: LIN7A, O14910
T5 sequence (O14910 103-200, limits assumed, looked up): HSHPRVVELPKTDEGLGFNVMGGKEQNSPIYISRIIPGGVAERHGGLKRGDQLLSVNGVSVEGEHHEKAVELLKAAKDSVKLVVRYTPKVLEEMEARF

T6: LNX2_2, Q8N448
T6 sequence (Q8N448 334-432, limits assumed, looked up): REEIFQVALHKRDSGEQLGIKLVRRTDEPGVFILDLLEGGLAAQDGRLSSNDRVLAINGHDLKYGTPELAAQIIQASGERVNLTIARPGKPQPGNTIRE

T7: MPDZ_10, O75970
T7 sequence (O75970 1624-1722, limits assumed, looked up): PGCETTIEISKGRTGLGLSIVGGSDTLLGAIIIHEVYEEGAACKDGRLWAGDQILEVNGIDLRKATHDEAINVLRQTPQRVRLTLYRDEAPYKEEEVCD

T8: MPP2, Q14168
T8 sequence (Q14168 180-250, limits assumed, looked up): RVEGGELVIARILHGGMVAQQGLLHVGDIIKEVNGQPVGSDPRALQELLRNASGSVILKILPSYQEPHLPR

T9: NHERF3_4, Q5T2W1
T9 sequence (Q5T2W1 373-468, limits assumed, looked up): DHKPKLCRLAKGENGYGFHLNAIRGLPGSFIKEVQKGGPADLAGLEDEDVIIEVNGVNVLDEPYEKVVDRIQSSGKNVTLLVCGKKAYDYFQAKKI

T10: PCLO, Q9Y6V0
T10 sequence (Q9Y6V0 4491-4600, limits assumed, looked up): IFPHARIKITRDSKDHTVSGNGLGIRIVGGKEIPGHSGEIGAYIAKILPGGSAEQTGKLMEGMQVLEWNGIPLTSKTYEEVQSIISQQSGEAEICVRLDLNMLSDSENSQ

T11: RADIL, Q96JH8
T11 sequence (Q96JH8 971-1071, limits assumed, looked up): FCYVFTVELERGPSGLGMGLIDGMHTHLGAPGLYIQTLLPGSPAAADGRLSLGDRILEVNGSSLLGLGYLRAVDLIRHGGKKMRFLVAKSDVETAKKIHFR

T12: TX1BP3, O14907
T12 sequence (O14907 10-122, limits assumed, looked up): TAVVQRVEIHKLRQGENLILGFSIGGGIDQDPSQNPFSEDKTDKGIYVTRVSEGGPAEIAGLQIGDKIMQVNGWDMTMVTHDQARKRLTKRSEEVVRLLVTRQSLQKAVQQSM


These binders were tested against T1, ARHGEF11, O15085 (assay: holdup assay). Details: plain residues with an end cap or a label only (N-terminal biotin on a linker: ado-ado).
Parameters: key: below the threshold = too weak to quantify, mostly under pKd 3.1 to 4

Row | pKd | Binder
1 | 4.03 | TKGPRGPTRV [SAPCD1, Q5SSQ6]
2 | below the threshold | SNAGNTATKA [NOSTRIN, Q8IVI9]

These binders were tested against T2, DFNB31_1, Q9P202 (assay: holdup assay). Details: plain residues with an end cap or a label only (N-terminal biotin on a linker: ado-ado).
Parameters: key: below the threshold = too weak to quantify, mostly under pKd 3.1 to 4

Row | pKd | Binder
3 | 3.52 | TKGPRGPTRV [SAPCD1, Q5SSQ6]
4 | below the threshold | SNAGNTATKA [NOSTRIN, Q8IVI9]

These binders were tested against FRMPD2_1, Q68DX3 (assay: holdup assay). Details: plain residues with an end cap or a label only (N-terminal biotin on a linker: ado-ado).
FRMPD2_1, Q68DX3, sequence (Q68DX3 770-861): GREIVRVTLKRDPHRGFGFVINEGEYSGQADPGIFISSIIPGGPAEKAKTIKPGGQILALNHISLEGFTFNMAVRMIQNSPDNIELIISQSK
Parameters: key: below the threshold = too weak to quantify, mostly under pKd 3.1 to 4

Row | pKd | Binder
5 | 4.35 | TKGPRGPTRV [SAPCD1, Q5SSQ6]
6 | below the threshold | SNAGNTATKA [NOSTRIN, Q8IVI9]

The binders below were run against FRMPD2_2, Q68DX3 (assay: holdup assay). Details: plain residues with an end cap or a label only (N-terminal biotin on a linker: ado-ado).
FRMPD2_2, Q68DX3, sequence (Q68DX3 944-1038): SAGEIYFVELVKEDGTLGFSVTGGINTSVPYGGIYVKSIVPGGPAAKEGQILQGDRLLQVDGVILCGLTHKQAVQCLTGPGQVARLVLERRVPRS
Parameters: key: below the threshold = too weak to quantify, mostly under pKd 3.1 to 4

Row | pKd | Binder
7 | below the threshold | TKGPRGPTRV [SAPCD1, Q5SSQ6]
8 | below the threshold | SNAGNTATKA [NOSTRIN, Q8IVI9]

These binders were tested against GOPC, Q9HD26 (assay: holdup assay). Details: plain residues with an end cap or a label only (N-terminal biotin on a linker: ado-ado).
Parameters: key: below the threshold = too weak to quantify, mostly under pKd 3.1 to 4

Row | pKd | Binder
9 | 4.19 | TKGPRGPTRV [SAPCD1, Q5SSQ6]
10 | below the threshold | SNAGNTATKA [NOSTRIN, Q8IVI9]

Each binder was assayed against T3, GRIP1_7, Q9Y3R0 (assay: holdup assay). Details: plain residues with an end cap or a label only (N-terminal biotin on a linker: ado-ado).
Parameters: key: below the threshold = too weak to quantify, mostly under pKd 3.1 to 4

Row | pKd | Binder
11 | below the threshold | TKGPRGPTRV [SAPCD1, Q5SSQ6]
12 | below the threshold | SNAGNTATKA [NOSTRIN, Q8IVI9]

What follows are binders tested against T4, HTRA4, P83105 (assay: holdup assay). Details: plain residues with an end cap or a label only (N-terminal biotin on a linker: ado-ado).
Parameters: key: below the threshold = too weak to quantify, mostly under pKd 3.1 to 4

Row | pKd | Binder
13 | 3.96 | TKGPRGPTRV [SAPCD1, Q5SSQ6]
14 | below the threshold | SNAGNTATKA [NOSTRIN, Q8IVI9]

Each binder was assayed against IL16_3, Q14005 (assay: holdup assay). Details: plain residues with an end cap or a label only (N-terminal biotin on a linker: ado-ado).
IL16_3, Q14005, sequence (Q14005 1107-1207): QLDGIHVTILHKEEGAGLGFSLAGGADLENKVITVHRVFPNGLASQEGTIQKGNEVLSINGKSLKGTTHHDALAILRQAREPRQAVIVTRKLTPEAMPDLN
Parameters: key: below the threshold = too weak to quantify, mostly under pKd 3.1 to 4

Row | pKd | Binder
15 | below the threshold | TKGPRGPTRV [SAPCD1, Q5SSQ6]
16 | below the threshold | SNAGNTATKA [NOSTRIN, Q8IVI9]

These binders were tested against Inadl_10, Q8NI35 (assay: holdup assay). Details: plain residues with an end cap or a label only (N-terminal biotin on a linker: ado-ado).
Inadl_10, Q8NI35, sequence (Q8NI35 1673-1763): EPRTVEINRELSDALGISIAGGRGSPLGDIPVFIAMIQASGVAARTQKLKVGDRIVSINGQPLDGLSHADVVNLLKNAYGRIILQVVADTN
Parameters: key: below the threshold = too weak to quantify, mostly under pKd 3.1 to 4

Row | pKd | Binder
17 | below the threshold | TKGPRGPTRV [SAPCD1, Q5SSQ6]
18 | below the threshold | SNAGNTATKA [NOSTRIN, Q8IVI9]

Each binder was assayed against Inadl_5, Q8NI35 (assay: holdup assay). Details: plain residues with an end cap or a label only (N-terminal biotin on a linker: ado-ado).
Inadl_5, Q8NI35, sequence (Q8NI35 673-780): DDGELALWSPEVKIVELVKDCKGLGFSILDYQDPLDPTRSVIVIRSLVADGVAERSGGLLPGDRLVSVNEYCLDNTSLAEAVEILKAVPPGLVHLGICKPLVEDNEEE
Parameters: key: below the threshold = too weak to quantify, mostly under pKd 3.1 to 4

Row | pKd | Binder
19 | 3.61 | TKGPRGPTRV [SAPCD1, Q5SSQ6]
20 | below the threshold | SNAGNTATKA [NOSTRIN, Q8IVI9]

The binders below were run against Inadl_9, Q8NI35 (assay: holdup assay). Details: plain residues with an end cap or a label only (N-terminal biotin on a linker: ado-ado).
Inadl_9, Q8NI35, sequence (Q8NI35 1530-1615): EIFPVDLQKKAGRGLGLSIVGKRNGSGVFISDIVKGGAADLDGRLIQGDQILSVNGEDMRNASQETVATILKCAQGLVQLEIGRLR
Parameters: key: below the threshold = too weak to quantify, mostly under pKd 3.1 to 4

Row | pKd | Binder
21 | 4.11 | TKGPRGPTRV [SAPCD1, Q5SSQ6]
22 | below the threshold | SNAGNTATKA [NOSTRIN, Q8IVI9]

The binders below were run against T5, LIN7A, O14910 (assay: holdup assay). Details: plain residues with an end cap or a label only (N-terminal biotin on a linker: ado-ado).
Parameters: key: below the threshold = too weak to quantify, mostly under pKd 3.1 to 4

Row | pKd | Binder
23 | below the threshold | TKGPRGPTRV [SAPCD1, Q5SSQ6]
24 | below the threshold | SNAGNTATKA [NOSTRIN, Q8IVI9]

These binders were tested against LNX1_3, Q8TBB1 (assay: holdup assay). Details: plain residues with an end cap or a label only (N-terminal biotin on a linker: ado-ado).
LNX1_3, Q8TBB1, sequence (Q8TBB1 500-596): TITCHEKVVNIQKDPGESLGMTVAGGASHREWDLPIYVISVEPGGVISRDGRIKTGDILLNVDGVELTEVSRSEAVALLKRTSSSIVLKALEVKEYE
Parameters: key: below the threshold = too weak to quantify, mostly under pKd 3.1 to 4

Row | pKd | Binder
25 | below the threshold | TKGPRGPTRV [SAPCD1, Q5SSQ6]
26 | below the threshold | SNAGNTATKA [NOSTRIN, Q8IVI9]

The binders below were run against T6, LNX2_2, Q8N448 (assay: holdup assay). Details: plain residues with an end cap or a label only (N-terminal biotin on a linker: ado-ado).
Parameters: key: below the threshold = too weak to quantify, mostly under pKd 3.1 to 4

Row | pKd | Binder
27 | 3.87 | TKGPRGPTRV [SAPCD1, Q5SSQ6]
28 | 3.56 | SNAGNTATKA [NOSTRIN, Q8IVI9]

The binders below were run against MAGI1_1, Q96QZ7 (assay: holdup assay). Details: plain residues with an end cap or a label only (N-terminal biotin on a linker: ado-ado).
MAGI1_1, Q96QZ7, sequence (Q96QZ7 1-106): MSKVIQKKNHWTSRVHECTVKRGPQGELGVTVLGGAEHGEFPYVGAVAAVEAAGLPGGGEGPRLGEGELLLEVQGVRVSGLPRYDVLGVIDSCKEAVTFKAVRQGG
Parameters: key: below the threshold = too weak to quantify, mostly under pKd 3.1 to 4

Row | pKd | Binder
29 | below the threshold | TKGPRGPTRV [SAPCD1, Q5SSQ6]
30 | below the threshold | SNAGNTATKA [NOSTRIN, Q8IVI9]

The binders below were run against MAGI1_2, Q96QZ7 (assay: holdup assay). Details: plain residues with an end cap or a label only (N-terminal biotin on a linker: ado-ado).
MAGI1_2, Q96QZ7, sequence (Q96QZ7 456-580): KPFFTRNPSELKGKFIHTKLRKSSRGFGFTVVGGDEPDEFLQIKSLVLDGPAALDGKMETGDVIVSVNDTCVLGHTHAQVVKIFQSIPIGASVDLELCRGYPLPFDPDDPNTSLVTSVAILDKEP
Parameters: key: below the threshold = too weak to quantify, mostly under pKd 3.1 to 4

Row | pKd | Binder
31 | 4.19 | TKGPRGPTRV [SAPCD1, Q5SSQ6]
32 | below the threshold | SNAGNTATKA [NOSTRIN, Q8IVI9]

Each binder was assayed against MAGI3_2, Q5TCQ9 (assay: holdup assay). Details: plain residues with an end cap or a label only (N-terminal biotin on a linker: ado-ado).
MAGI3_2, Q5TCQ9, sequence (Q5TCQ9 398-503): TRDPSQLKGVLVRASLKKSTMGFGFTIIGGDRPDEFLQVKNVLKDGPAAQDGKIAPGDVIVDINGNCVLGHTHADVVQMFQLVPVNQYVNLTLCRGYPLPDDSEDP
Parameters: key: below the threshold = too weak to quantify, mostly under pKd 3.1 to 4

Row | pKd | Binder
33 | 5.41 | TKGPRGPTRV [SAPCD1, Q5SSQ6]
34 | below the threshold | SNAGNTATKA [NOSTRIN, Q8IVI9]

These binders were tested against T7, MPDZ_10, O75970 (assay: holdup assay). Details: plain residues with an end cap or a label only (N-terminal biotin on a linker: ado-ado).
Parameters: key: below the threshold = too weak to quantify, mostly under pKd 3.1 to 4

Row | pKd | Binder
35 | 4.4 | TKGPRGPTRV [SAPCD1, Q5SSQ6]
36 | below the threshold | SNAGNTATKA [NOSTRIN, Q8IVI9]

What follows are binders tested against T8, MPP2, Q14168 (assay: holdup assay). Details: plain residues with an end cap or a label only (N-terminal biotin on a linker: ado-ado).
Parameters: key: below the threshold = too weak to quantify, mostly under pKd 3.1 to 4

Row | pKd | Binder
37 | below the threshold | TKGPRGPTRV [SAPCD1, Q5SSQ6]
38 | below the threshold | SNAGNTATKA [NOSTRIN, Q8IVI9]

The binders below were run against T9, NHERF3_4, Q5T2W1 (assay: holdup assay). Details: plain residues with an end cap or a label only (N-terminal biotin on a linker: ado-ado).
Parameters: key: below the threshold = too weak to quantify, mostly under pKd 3.1 to 4

Row | pKd | Binder
39 | below the threshold | TKGPRGPTRV [SAPCD1, Q5SSQ6]
40 | below the threshold | SNAGNTATKA [NOSTRIN, Q8IVI9]

Each binder was assayed against T10, PCLO, Q9Y6V0 (assay: holdup assay). Details: plain residues with an end cap or a label only (N-terminal biotin on a linker: ado-ado).
Parameters: key: below the threshold = too weak to quantify, mostly under pKd 3.1 to 4

Row | pKd | Binder
41 | below the threshold | TKGPRGPTRV [SAPCD1, Q5SSQ6]
42 | below the threshold | SNAGNTATKA [NOSTRIN, Q8IVI9]

Each binder was assayed against T11, RADIL, Q96JH8 (assay: holdup assay). Details: plain residues with an end cap or a label only (N-terminal biotin on a linker: ado-ado).
Parameters: key: below the threshold = too weak to quantify, mostly under pKd 3.1 to 4

Row | pKd | Binder
43 | 3.54 | TKGPRGPTRV [SAPCD1, Q5SSQ6]
44 | 3.57 | SNAGNTATKA [NOSTRIN, Q8IVI9]

Each binder was assayed against TJP1_2, Q07157 (assay: holdup assay). Details: plain residues with an end cap or a label only (N-terminal biotin on a linker: ado-ado).
TJP1_2, Q07157, sequence (Q07157 181-274): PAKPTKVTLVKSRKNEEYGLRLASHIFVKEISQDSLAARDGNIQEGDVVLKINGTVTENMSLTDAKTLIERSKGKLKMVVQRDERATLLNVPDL
Parameters: key: below the threshold = too weak to quantify, mostly under pKd 3.1 to 4

Row | pKd | Binder
45 | below the threshold | TKGPRGPTRV [SAPCD1, Q5SSQ6]
46 | below the threshold | SNAGNTATKA [NOSTRIN, Q8IVI9]

What follows are binders tested against TJP2_1, Q9UDY2 (assay: holdup assay). Details: plain residues with an end cap or a label only (N-terminal biotin on a linker: ado-ado).
TJP2_1, Q9UDY2, sequence (Q9UDY2 24-128): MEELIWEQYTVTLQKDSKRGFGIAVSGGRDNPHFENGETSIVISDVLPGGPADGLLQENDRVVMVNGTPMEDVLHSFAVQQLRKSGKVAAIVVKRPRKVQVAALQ
Parameters: key: below the threshold = too weak to quantify, mostly under pKd 3.1 to 4

Row | pKd | Binder
47 | 3.9 | TKGPRGPTRV [SAPCD1, Q5SSQ6]
48 | below the threshold | SNAGNTATKA [NOSTRIN, Q8IVI9]

What follows are binders tested against T12, TX1BP3, O14907 (assay: holdup assay). Details: plain residues with an end cap or a label only (N-terminal biotin on a linker: ado-ado).
Parameters: key: below the threshold = too weak to quantify, mostly under pKd 3.1 to 4

Row | pKd | Binder
49 | below the threshold | TKGPRGPTRV [SAPCD1, Q5SSQ6]
50 | below the threshold | SNAGNTATKA [NOSTRIN, Q8IVI9]
